B1: EH domain-containing protein 3 (Mus musculus), Q9QXY6 (parent)
chain: MFSWLGNDDRRKKDPEVFQTVSDGLKKLYKTKLLPLEEYYRFHEFHSPALEDADFDNKPMVLLVGQYSTGKTTFIRYLLEQDFPGMRIGPEPTTDSFIAVMQGDVEGIIPGNALVVDPKKPFRKLNAFGNAFLNRFVCAQLPNAVLESISVIDTPGILSGEKQRISRGYDFAAVLEWFAERVDRIILLFDAHKLDISDEFSEVIKALKNHEDKMRVVLNKADQIETQQLMRVYGALMWSLGKIVNTPEVIRVYIGSFWSHPLLIPDNRKLFEAEEQDLFRDIQSLPRNAALRKLNDLIKRARLAKVHAYIISSLKKEMPSVFGKDTKKKELVNNLAEIYGRIEREHQISPGDFPNLKRMQDQLQAQDFSKFQPLKSKLLEVVDDMLAHDIAQLMVLVRQEETQRPVQMVKGGAFEGTLQGPFGHGYGEGAGEGIDDAEWVVARDKPMYDEIFYTLSPVDGKITGANAKKEMVRSKLPNSVLGKIWKLADIDKDGMLDDEEFALANHLIKVKLEGHELPSELPAHLLPPSKRKVSE
partner: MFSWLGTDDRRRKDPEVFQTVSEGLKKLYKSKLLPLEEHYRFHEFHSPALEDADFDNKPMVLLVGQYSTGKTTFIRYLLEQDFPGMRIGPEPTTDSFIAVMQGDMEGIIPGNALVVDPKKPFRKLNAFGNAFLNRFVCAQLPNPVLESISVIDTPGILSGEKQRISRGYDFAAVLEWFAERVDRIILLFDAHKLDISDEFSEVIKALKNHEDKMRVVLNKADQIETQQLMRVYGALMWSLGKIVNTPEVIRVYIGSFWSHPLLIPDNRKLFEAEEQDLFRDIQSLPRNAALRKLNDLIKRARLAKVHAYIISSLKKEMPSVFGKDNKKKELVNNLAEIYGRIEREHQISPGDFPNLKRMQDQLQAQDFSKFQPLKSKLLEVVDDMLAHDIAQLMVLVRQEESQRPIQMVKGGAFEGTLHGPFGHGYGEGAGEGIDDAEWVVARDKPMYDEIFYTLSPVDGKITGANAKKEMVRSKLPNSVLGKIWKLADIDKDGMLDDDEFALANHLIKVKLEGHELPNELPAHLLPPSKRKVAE
B2: EH domain-containing protein 3 (Homo sapiens), Q9NZN3 (parent)
chain: B1 partner
partner: B1 chain
B3: EH domain-containing protein 3 (Homo sapiens), Q9NZN3 (parent)
chain: B1 partner
partner: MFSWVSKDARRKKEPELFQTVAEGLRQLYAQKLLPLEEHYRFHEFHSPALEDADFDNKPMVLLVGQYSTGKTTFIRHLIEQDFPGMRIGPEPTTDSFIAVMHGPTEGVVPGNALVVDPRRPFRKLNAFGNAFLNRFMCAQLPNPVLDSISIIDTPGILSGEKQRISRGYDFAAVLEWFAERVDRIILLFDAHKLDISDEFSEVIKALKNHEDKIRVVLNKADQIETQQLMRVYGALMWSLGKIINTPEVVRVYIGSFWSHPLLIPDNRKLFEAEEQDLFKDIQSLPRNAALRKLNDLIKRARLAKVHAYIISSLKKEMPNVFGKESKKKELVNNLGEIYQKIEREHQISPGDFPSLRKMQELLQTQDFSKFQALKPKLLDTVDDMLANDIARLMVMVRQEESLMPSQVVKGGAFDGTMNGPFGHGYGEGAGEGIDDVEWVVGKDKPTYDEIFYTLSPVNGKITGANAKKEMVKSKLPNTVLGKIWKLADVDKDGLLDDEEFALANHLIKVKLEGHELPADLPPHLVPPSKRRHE

Variants of: B1
Conditions: with ehd3_human EHD3, Q9NZN3

Q: With K315R;K511R as the variant, how does the “effect of a mutation on the interaction” value read?
A: with no effect

Variants of: B1
Conditions: with ehd3_human EHD3, Q9NZN3
Remark: another data set of the same source

Q: K315R;K511R was tested. Which “effect of a mutation on the interaction” value did it give?
A: decreasing interaction

Q: With K511R as the variant, how does the “effect of a mutation on the interaction” value read?
A: decreasing interaction

Variants of: B2
Conditions: with ehd3_mouse Ehd3, Q9QXY6

Q: For K315R, which “effect of a mutation on the interaction” value is on record?
A: with no effect

Variants of: B2
Conditions: with ehd3_mouse Ehd3, Q9QXY6
Remark: another data set of the same source

Q: How did the “effect of a mutation on the interaction” value turn out when K511R was run?
A: with no effect

Variants of: B2
Conditions: with ehd3_mouse Ehd3, Q9QXY6
Remark: another data set of the same source

Q: For K315R;K511R, which “effect of a mutation on the interaction” value is on record?
A: with no effect

Variants of: B3
Conditions: with ehd1_human EHD1, Q9H4M9

Q: How did the “effect of a mutation on the interaction” value turn out when K315R was run?
A: with no effect

Q: For K315R;K511R, which “effect of a mutation on the interaction” value is on record?
A: with no effect

Q: For K511R, which “effect of a mutation on the interaction” value is on record?
A: with no effect

Variants of: B3
Conditions: with ehd1_human EHD1, Q9H4M9
Remark: another data set of the same source

Q: For K315R;K511R, which “effect of a mutation on the interaction” value is on record?
A: disrupting interaction

Q: K511R was tested. Which “effect of a mutation on the interaction” value did it give?
A: decreasing interaction

— IntAct's records for PubMed 26226295
